Measured values published in patent publication US20220096600A1.

Biological target: CCR5 on mouse periosteal skeletal stem cells / mouse cells in vivo (mouse) (UniProt P51682)
Assay: cell-based or functional assay

UniProt P51682, sequence (P51682 whole entry): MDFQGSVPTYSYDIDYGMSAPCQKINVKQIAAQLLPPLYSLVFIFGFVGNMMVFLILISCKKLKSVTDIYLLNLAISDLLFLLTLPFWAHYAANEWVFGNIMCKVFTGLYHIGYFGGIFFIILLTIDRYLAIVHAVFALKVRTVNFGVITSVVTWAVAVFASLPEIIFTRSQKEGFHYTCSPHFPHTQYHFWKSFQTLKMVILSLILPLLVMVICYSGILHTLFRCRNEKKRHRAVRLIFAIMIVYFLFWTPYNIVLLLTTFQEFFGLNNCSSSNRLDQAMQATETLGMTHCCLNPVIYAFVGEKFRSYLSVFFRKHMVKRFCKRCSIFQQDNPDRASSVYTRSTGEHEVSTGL

- average in vivo migration speed of Mx1+aSMA+ P-SSCs under CCL5 administration: 57 µm/h
Substance: CCL5 (ligand)
